Data on one molecule can be found in PMC9645763, “CK2-mediated phosphorylation of SUZ12 promotes PRC2 function by stabilizing enzyme active site” (Nature Communications, 2022).

In the assay the target is T1, EZH1 of the truncated minimal complex used for crystallization (human, UniProt Q92800 1-187; Q92800 230-491; Q92800 497-747, residues 353–413 of EZH1 were deleted).
T1 construct: human EZH1, residues 1-187; linker that replaces residues 188–229 of EZH1; human EZH1, residues 230-491 with 353–413 deleted; linker that replaces residues 492–496 of EZH1; human EZH1, residues 497-747; In the crystal joined on one chain with m3 through an LVPRGS linker; source: S. cerevisiae CB010, purified (IgG-sepharose, TEV cleavage, Superdex 200); not shown: His6, N-terminal, …
T1 sequence (Q92800 other isoform, or with tags, fused parts or gaps with the stated changes): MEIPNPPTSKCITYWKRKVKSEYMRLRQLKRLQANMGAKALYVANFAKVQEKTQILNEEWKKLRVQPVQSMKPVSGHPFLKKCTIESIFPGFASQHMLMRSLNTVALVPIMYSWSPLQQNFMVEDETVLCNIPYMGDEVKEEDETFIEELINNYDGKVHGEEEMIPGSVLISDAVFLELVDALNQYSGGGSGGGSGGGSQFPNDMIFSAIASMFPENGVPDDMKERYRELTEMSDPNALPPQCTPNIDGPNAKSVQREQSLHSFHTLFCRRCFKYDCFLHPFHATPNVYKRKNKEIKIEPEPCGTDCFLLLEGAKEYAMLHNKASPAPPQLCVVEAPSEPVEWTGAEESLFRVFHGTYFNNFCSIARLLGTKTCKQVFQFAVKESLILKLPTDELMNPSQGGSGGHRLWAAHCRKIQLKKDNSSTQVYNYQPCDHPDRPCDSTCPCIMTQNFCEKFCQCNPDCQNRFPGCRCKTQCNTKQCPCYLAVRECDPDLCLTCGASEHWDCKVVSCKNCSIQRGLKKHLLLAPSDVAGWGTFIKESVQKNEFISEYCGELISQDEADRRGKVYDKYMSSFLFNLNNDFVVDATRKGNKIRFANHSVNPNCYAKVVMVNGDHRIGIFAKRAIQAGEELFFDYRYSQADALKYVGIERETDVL
Put plainly: crystal structure; truncated minimal EZH1–EED–SUZ12(VEFS) complex at 10 mg/ml pre-incubated with 0.5 mM H3K27M peptide, 0.5 mM H3K27me3 peptide and 1 mM SAM; 10% PEG3350, 100 mM ammonium sulfate, 50 mM HEPES pH 6.8; 3.0 Å. Particulars: both partners purified.

B1: EED of the truncated minimal complex used for crystallization (domain or fragment)
chain: not shown
notes: human EED, residues 1–77 replaced by a StrepII tag; source: S. cerevisiae CB010, co-expressed, purified with the complex (IgG-sepharose, TEV cleavage, Superdex 200); not shown: StrepII, N-terminal, kept
Regarding B1, the binding result is listed as “binds”.
